The assay deals with T1, HA-tagged caspase-1 p10 plus p20 C285S active-site mutant (human, UniProt P29466 120-297; P29466 317-404, C285S).
T1 sequence (looked up) 1: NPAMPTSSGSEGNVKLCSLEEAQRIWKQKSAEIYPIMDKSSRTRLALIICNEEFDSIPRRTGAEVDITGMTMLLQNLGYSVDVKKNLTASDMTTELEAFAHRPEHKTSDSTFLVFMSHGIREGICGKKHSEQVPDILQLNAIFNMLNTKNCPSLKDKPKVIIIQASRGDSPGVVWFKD
T1 sequence (looked up) 2: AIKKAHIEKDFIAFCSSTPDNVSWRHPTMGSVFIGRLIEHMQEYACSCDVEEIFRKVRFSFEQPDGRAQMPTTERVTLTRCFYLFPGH
Kind of assay: non-reducing SDS-PAGE with Western blot.

B1: active recombinant human PRDX4 (non-reduced) (enzyme, UniProt Q13162 38-271, looked up)
chain: WETEERPRTREEECHFYAGGQVYPGEASRVSVADHSLHLSKAKISKPAPYWEGTAVIDGEFKELKLTDYRGKYLVFFFYPLDFTFVCPTEIIAFGDRLEEFRSINTEVVACSVDSQFTHLAWINTPRRQGGLGPIRIPLLSDLTHQISKDYGVYLEDSGHTLRGLFIIDDKGILRQITLNDLPVGRSVDETLRLVQAFQYTDKHGEVCPAGWKPGSETIIPDPAGKLKYFDKLN
As for B1, the binding result is on record as “binds”.

Source of the values: PMC6792017 (The EMBO Journal, 2019).
